Patent publication US12186374B2 (Sanofi-Aventis Deutschland GmbH, priority 2014, dated 2025)

Columns and labels:
[1] = tested on: patients with Type 2 diabetes mellitus (T2DM); experiment: HbA1c change from baseline to Week 30 (Example 2, on top of metformin); type: in vivo, human; conditions: for HbA1c change from baseline to Week 30, LS Mean (SE): MMRM
Procedure: For the eligibility and efficacy assessments of the study, HbA1c is measured by a certified level I “National Glycohemoglobin Standardization Program” (NGSP) central laboratory.
Randomization was stratified by values of HbA1c at visit 4 (<8%, […]) and second oral anti-diabetic (OAD) use at screening (Yes, No).
Diagnosis and criteria for inclusion: Inclusion criteria: Patients with type 2 diabetes mellitus (T2DM) diagnosed for at least 1 year before the screening visit, treated for at least 3 months prior to Visit 1 with metformin alone or metformin and a second oral anti-diabetic treatment that could be a SU, a glinide, a SGLT-2 inhibitor, or a DPP-4 inhibitor, and who were not adequately controlled with this treatment.
Efficacy analysis was based on modified intent-to-treat (mITT) population using efficacy assessments collected during the study, including those obtained after IMP discontinuation or introduction of rescue therapy. The mITT population consisted of all randomized patients who had both a baseline assessment and at least one post-baseline assessment of any primary or secondary efficacy variables.
The primary efficacy endpoint was analyzed using a mixed-effect model with repeated measures (MMRM). The MMRM model included the treatment groups, randomization strata, visit, treatment-by-visit interaction, and country as fixed-effect factors, and the baseline HbA1c-by-visit interaction as covariate.

[2] = tested on: patients with Type 2 diabetes mellitus (T2DM); experiment: Average 7-point SMPG change from baseline to Week 30 (Example 2); type: in vivo, human; conditions: mITT population
[3] = tested on: patients with Type 2 diabetes mellitus (T2DM); experiment: Patients receiving rescue therapy (Example 2); type: in vivo, human
From the text: Routing measurements and central lab alerts were set up to ensure that glycemic parameters remained under thresholds values predefined for rescue therapy. If values were above these thresholds, and no explanations were found, or appropriate actions failed, or a dose >60 U was necessary to decrease glycemic parameters below the threshold values, rescue therapy was to be introduced along with IMP and metformin (if taken). Newly initiated anti-diabetic medications, or an increase from baseline in background metformin dose were considered as rescue therapy.

patients with T2DM [4] = experiment: Patients with HbA1c ≤6.5% or <7% at Week 30 (Example 3); type: in vivo, human
From the text: (§1) Similar MMRM method or analysis of covariance (ANCOVA) was applied on continuous secondary efficacy endpoints and the Cochran-Mantei-Haenszel method stratified by randomization strata was applied for categorical efficacy endpoints.

patients with T2DM [5] = experiment: Average 7-point SMPG change from baseline to Week 30 (Example 3); type: in vivo, human; conditions: mITT population
From the text: In yet another aspect of the present invention, the composition or combination as described herein can be used for improving average 7-point SMPG profile. Self-monitored plasma glucose (SMPG)”, as used herein, is in particular the “7-point Self Monitored Plasma Glucose”. “7-point Self Monitored Plasma Glucose” in particular refers to the measurement of plasma glucose seven times a day and calculation of the average plasma glucose concentration therefrom. The “7-point Self Monitored Plasma Glucose” value is in particular an average plasma glucose concentration including fasting and postprandial conditions. In particular, measurements of plasma glucose concentration are performed pre-breakfast, post-breakfast (e.g. 2-hour post-breakfast), pre-lunch, post-lunch (e.g. 2-hour post-lunch), pre-dinner, post-dinner (e.g. 2-hour post-dinner) and at bed-time. The treatment by the combination of the present invention, as described herein, can improve the self-monitored plasma glucose.
The 7-point SMPG profile should be measured at the following 7 points: pre-prandial and 2 hours postprandial for breakfast, lunch, dinner and at bedtime. Two hours postprandial (breakfast, lunch and dinner) is defined as 2 hours after the start of the meal.
The patients are requested to perform 7-point SMPG profile measurement over a single 24-hour period on 2 Different Days in the Week Before V6 (Week 0), V15 (Week 12), and V21 (week 30, end of treatment assessment visit). All SMPG values measured on these days will be recorded in diary and transferred into the e-CRF.
as §1

patients with T2DM [6] = tested on: patients with T2DM; design: species or system human; conditions: in vivo
From the text: The mission of the ARAC will be to adjudicate, in a timely manner, all allergic, or possible allergic events.
In case a patient experiences an allergic reaction or an allergic-like reaction this has to be reported as an adverse event and recorded in the e-CRF on the specific AE form for suspected allergic event. Additional information is collected on specific allergic reaction complementary form. Allergic reaction or possible allergic reaction will be adjudicated by the ARAC (Section 5.4.2).
The number (%) of patients with events adjudicated as allergic reactions by ARAC and with events adjudicated by ARAC as possibly related to the IMP will be summarized by treatment group. All the allergic events reported by the investigators on the AE form for suspected allergic event and its associated complementary forms (confirmed or not confirmed by ARAC) will be listed.

[7] = tested on: patients with Type 2 diabetes mellitus (T2DM); experiment: Symptomatic hypoglycemia (Example 2)
[8] = tested on: patients with Type 2 diabetes mellitus (T2DM); experiment: Pancreatic events adjudicated by PSAC (Example 2)
[9] = on-treatment period, Safety population

Gly(A21)-Arg(B31)-Arg(B32)-human insulin [Insulin Glargine]
HbA1c change from baseline to Week 30, LS Mean (SE) ([1]; mITT population): −1.34 (0.039) %
HbA1c change from baseline to Week 30, LS Mean (SE) ([1]; mITT population, listed as insulin glargine): −1.34%
HbA1c (%) Week 30 Mean (SD) ([1]; Week 30, mITT population): 6.81 (0.76) %
HbA1c (%) Week 30 Median ([1]; Week 30, mITT population): 6.70%
HbA1c (%) Week 30 Mean (SD) ([1]; Week 30, mITT population, listed as insulin glargine): 6.8%
HbA1c (%) Baseline Mean (SD) ([1]; baseline, mITT population): 8.08 (0.69) %
HbA1c (%) Baseline Median ([1]; baseline, mITT population): 8.00%
Average of 7-point SMPG, change from baseline to Week 30, LS Mean (SE) ([2]; MMRM): −2.66 (0.084) mmol/L
Average of 7-point SMPG, Week 30, Mean (SD) [2]: 7.75 (1.49) mmol/L
Average of 7-point SMPG, Week 30, Median [2]: 7.49 mmol/L
Patients who received rescue therapy, % [3]: 3.4%
Patients who received rescue therapy, number [3]: 16 patients
Patients reaching HbA1c<7.0% at Week 30 (patients with T2DM [4]; Example 3): 29.6%
Patients reaching HbA1c≤[…] at Week 30 (patients with T2DM [4]; Example 3): 14.2%
Patients with HbA1c <7% at Week 30 (patients with T2DM [4]; mITT population): 108 (29.6%) Number (%)
Patients with HbA1c ≤[…] at Week 30 (patients with T2DM [4]; mITT population): 52 (14.2%) Number (%)
Average of 7-point SMPG, change from baseline to Week 30, LS Mean (SE) (patients with T2DM [5]; MMRM): −0.60 (0.130) mmol/L
Average of 7-point SMPG at Week 30, Mean (SD) (patients with T2DM [5]): 8.62 (1.74) mmol/L
Average of 7-point SMPG at Week 30, Median (patients with T2DM [5]): 8.26 mmol/L
% of patients with events adjudicated as allergic reaction by ARAC: Any category, Any event (patients with T2DM [6]): 0.3%
% of patients with events adjudicated as allergic reaction by ARAC: Not Related to IMP (patients with T2DM [6]): 0.3%
% of patients with events adjudicated as allergic reaction by ARAC: Other, Rhinitis allergic (patients with T2DM [6]): 0.3%
% of patients with events adjudicated as allergic reaction by ARAC: category Other (patients with T2DM [6]): 0.3%
Events adjudicated as allergic reaction by ARAC (patients with T2DM [6]): One
Number of patients with events adjudicated as allergic reaction by ARAC: Any category, Any event (patients with T2DM [6]): 1
Number of patients with events adjudicated as allergic reaction by ARAC: Not Related to IMP (patients with T2DM [6]): 1
Number of patients with events adjudicated as allergic reaction by ARAC: Other, Rhinitis allergic (patients with T2DM [6]): 1
Number of patients with events adjudicated as allergic reaction by ARAC: category Other (patients with T2DM [6]): 1
Documented (≤70 mg/dL) symptomatic hypoglycemia event rate per patient-year ([7]; Example 2): 1.22 per patient-year
Events of severe symptomatic hypoglycemia ([7]; Example 2): 1 event
Incidence of documented (≤70 mg/dL) symptomatic hypoglycemia ([7]; Example 2): 23.6%
Number of symptomatic hypoglycemia events ([7]; Example 2): 338 events
Patients reporting symptomatic hypoglycemia (protocol definition) ([7]; Example 2): 25.5%
Symptomatic hypoglycemia events per patient-year ([7]; Example 2): 1.29 events per patient-year
Documented symptomatic hypoglycemia (plasma glucose < 60 mg/dL [[…]]): Number of events [7, 9]: 75
Documented symptomatic hypoglycemia (plasma glucose < 60 mg/dL [[…]]): Number of events per patient year [7, 9]: 0.29 per patient year
Documented symptomatic hypoglycemia (plasma glucose < 60 mg/dL [[…]]): Number of patients with events [7, 9]: 50 (10.7%) n (%)
Documented symptomatic hypoglycemia (plasma glucose < 60 mg/dL [[…]]): Number of patients with events per patient year [7, 9]: 0.19 per patient year
Documented symptomatic hypoglycemia (plasma glucose ≤ 70 mg/dL [[…]]): Number of events [7, 9]: 321
Documented symptomatic hypoglycemia (plasma glucose ≤ 70 mg/dL [[…]]): Number of events per patient year [7, 9]: 1.22 per patient year
Documented symptomatic hypoglycemia (plasma glucose ≤ 70 mg/dL [[…]]): Number of patients with events [7, 9]: 110 (23.6%) n (%)
Documented symptomatic hypoglycemia (plasma glucose ≤ 70 mg/dL [[…]]): Number of patients with events per patient year [7, 9]: 0.42 per patient year
Probable symptomatic hypoglycemia: Number of events [7, 9]: 16
Probable symptomatic hypoglycemia: Number of events per patient year [7, 9]: 0.06 per patient year
Probable symptomatic hypoglycemia: Number of patients with events [7, 9]: 12 (2.6%) n (%)
Probable symptomatic hypoglycemia: Number of patients with events per patient year [7, 9]: 0.05 per patient year
Severe symptomatic hypoglycemia: Number of events [7, 9]: 1
Severe symptomatic hypoglycemia: Number of events per patient year [7, 9]: <0.01 per patient year
Severe symptomatic hypoglycemia: Number of patients with events [7, 9]: 1 (0.2%) n (%)
Severe symptomatic hypoglycemia: Number of patients with events per patient year [7, 9]: <0.01 per patient year
Symptomatic hypoglycemia: Number of events [7, 9]: 338
Symptomatic hypoglycemia: Number of events per patient year [7, 9]: 1.29 per patient year
Symptomatic hypoglycemia: Number of patients with events [7, 9]: 119 (25.5%) n (%)
Symptomatic hypoglycemia: Number of patients with events per patient year [7, 9]: 0.45 per patient year
Cases of pancreatic cancer ([8]; Example 2): One
Pancreatic events positively adjudicated by PSAC: Acute on chronic pancreatitis [8, 9]: 0 Number (%)
Pancreatic events positively adjudicated by PSAC: Acute pancreatitis [8, 9]: 0 Number (%)
Pancreatic events positively adjudicated by PSAC: Chronic pancreatitis [8, 9]: 0 Number (%)
Pancreatic events positively adjudicated by PSAC: Unknown pancreatitis [8, 9]: 0 Number (%)
Patients with pancreatic events positively adjudicated by PSAC: Any with “Yes” for pancreatitis by PSAC [8, 9]: 0 Number (%)
